Measurements from patent US20090311248A1.

Molecular target: E1s (HCV E1 envelope protein, aa 192-326 of the HCV polyprotein) (Hepatitis C virus (HCV))
Experiment: coating ELISA, E1s at 0.5 ug/ml, hybridoma supernatant

4G2 (antibody)
O.D. value (450-595 nm): > 2 O.D.
